Results taken from US20260035456A1 (SHANGHAI JEYOU PHARMACEUTICAL, published 2026).

Tests used:
biotin-labeled human ADM = target: T1, biotin-labeled human ADM (human, not fully specified; biotin label (named human ADM-C-biotin in Example 1.4; position of the biotin not stated for the other lots)); test: flow staining of yeast-displayed Fab at graded antigen concentrations
T1 construct: Synthetic peptide; also called human ADM-C-biotin; hADM-Biotin
T1 peptide: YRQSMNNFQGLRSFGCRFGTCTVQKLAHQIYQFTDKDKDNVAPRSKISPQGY
Text: (§1) For the first round of screening products of JYYDL227, 46 monoclones were picked for sequencing, and finally, a yeast monoclonal colony with a unique sequence was obtained for EC₅₀ identification by flow staining.
(§2) According to the staining results of the clones (as shown in Table 6) in combination with the similarity of the sequences of the clones, the monoclones expressing antibodies Ab2004.Am31 (with amino acid sequences of variable regions set forth in SEQ ID NOs: 31 and 36), Ab2004.Am32 (with amino acid sequences of variable regions set forth in SEQ ID NOs: 31 and 37), Ab2004.Am33 (with amino acid sequences of variable regions set forth in SEQ ID NOs: 32 and 36), Ab2004.Am34 (with amino acid sequences of variable regions set forth in SEQ ID NOs: 33 and 38), Ab2004.Am35 (with amino acid sequences of variable regions set forth in SEQ ID NOs: 31 and 38), Ab2004.Am36 (with amino acid sequences of variable regions set forth in SEQ ID NOs: 31 and 39), Ab2004.Am37 (with amino acid sequences of variable regions set forth in SEQ ID NOs: 34 and 38), Ab2004.Am38 (with amino acid sequences of variable regions set forth in SEQ ID NOs: 34 and 40), Ab2004.Am39 (with amino acid sequences of variable regions set forth in SEQ ID NOs: 33 and 41), and Ab2004.Am40 (with amino acid sequences of variable regions set forth in SEQ ID NOs: 31 and 42) were finally selected. The amino acid sequences of the Chothia-numbered CDRs of the candidate antibodies are shown in Table 7, and the amino acid sequences of the light and heavy chain variable regions of the candidate antibodies are shown in Table 8.

biotin-labeled mouse ADM = target: T2, biotin-labeled mouse ADM (mouse, not fully specified; biotin label (named mouse ADM-C-biotin in Example 1.4; position of the biotin not stated for the other lots)); test: as above
T2 construct: Synthetic peptide; also called mouse ADM-C-biotin; mADM-Biotin
T2 peptide: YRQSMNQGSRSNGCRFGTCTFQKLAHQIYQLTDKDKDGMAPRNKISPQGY
Text: as §1, §2

Binder | EC50 (biotin-labeled human ADM) [nM] | EC50 (biotin-labeled mouse ADM) [nM]
Ab2004.Am32 (Fab displayed on yeast) (Fab, V domains shown, Yeast monoclonal colony of library JYYDL227 (Fab display)) VH: QVQLVQSGAEVKKPGASVKVSCKASGYTFTQYGIAWVRQAPGQGLEWMGWISAYQGNTNYAQKLQGRVTMTRDTSTSTAYMELRSLRSDDTAVYYCAREGRWGGSFNIWGQGTMVTVSS VL: DIQMTQSPSSLSASVGDRVTITCRAAEGIGSYLAWYQQKPGKAPKLLIYDASNLETGVPSRFSGSGSGTDFTFTISSLQPEDIATYYCQQYDNLPLTFGGGTKVEIK | 0.41 | 2.2
Ab2004.Am01 (Fab displayed on yeast) (Fab, V domains shown) VH: QVQLVQSGAEVKKPGASVKVSCKASGYTFTSYGISWVRQAPGQGLEWMGWISAYQGNTNYAQKLQGRVTMTRDTSTSTAYMELRSLRSDDTAVYYCAREGRWGGSFNIWGQGTMVTVSS VL: DIQMTQSPSSLSASVGDRVTITCRASQGISSYLAWYQQKPGKAPKLLIYDASNLETGVPSRFSGSGSGTDFTFTISSLQPEDIATYYCQQYDNLPLTFGGGTKVEIK | 4 | 88.2
Ab2004.Am39 (Fab displayed on yeast) (Fab, V domains shown, Yeast monoclonal colony of library JYYDL227 (Fab display)) VH: QVQLVQSGAEVKKPGASVKVSCKASGYTFTHYGIAWVRQAPGQGLEWMGWISAYQGNTNYAQKLQGRVTMTRDTSTSTAYMELRSLRSDDTAVYYCAREGRWGGSFNIWGQGTMVTVSS VL: DIQMTQSPSSLSASVGDRVTITCRASQGISSYLAWYQQKPGKAPKLLIYDASNLETGVPSRFSGSGSGTDFTFTISSLQPEDIATYYCQQYDDLDLTFGGGTKVEIK | 0.86 | 4.23
Ab2004.Am40 (Fab displayed on yeast) (Fab, V domains shown, Yeast monoclonal colony of library JYYDL227 (Fab display)) VH: QVQLVQSGAEVKKPGASVKVSCKASGYTFTQYGIAWVRQAPGQGLEWMGWISAYQGNTNYAQKLQGRVTMTRDTSTSTAYMELRSLRSDDTAVYYCAREGRWGGSFNIWGQGTMVTVSS VL: DIQMTQSPSSLSASVGDRVTITCRASQGISSYLAWYQQKPGKAPKLLIYDASNLETGVPSRFSGSGSGTDFTFTISSLQPEDIATYYCQQYDDLPLSFGGGTKVEIK | 0.5 | 2.5
Ab2004.Am35 (Fab displayed on yeast) (Fab, V domains shown, Yeast monoclonal colony of library JYYDL227 (Fab display)) VH: QVQLVQSGAEVKKPGASVKVSCKASGYTFTQYGIAWVRQAPGQGLEWMGWISAYQGNTNYAQKLQGRVTMTRDTSTSTAYMELRSLRSDDTAVYYCAREGRWGGSFNIWGQGTMVTVSS VL: DIQMTQSPSSLSASVGDRVTITCRASQGISSYLAWYQQKPGKAPKLLIYDVSILDAGVPSRFSGSGSGTDFTFTISSLQPEDIATYYCQQYDNLPLTFGGGTKVEIK | 1.47 | 2.26
Ab2004.Am38 (Fab displayed on yeast) (Fab, V domains shown, Yeast monoclonal colony of library JYYDL227 (Fab display)) VH: QVQLVQSGAEVKKPGASVKVSCKASGYTFTSYGISWVRQAPGQGLEWMGWISPYTGKTNYAQKLQGRVTMTRDTSTSTAYMELRSLRSDDTAVYYCAREGRWGGSFNIWGQGTMVTVSS VL: DIQMTQSPSSLSASVGDRVTITCRASQGISSYLAWYQQKPGKAPKLLIYDTSDLDTGVPSRFSGSGSGTDFTFTISSLQPEDIATYYCQQYDNLPLTFGGGTKVEIK | 0.74 | 14.3
Ab2004.Am37 (Fab displayed on yeast) (Fab, V domains shown, Yeast monoclonal colony of library JYYDL227 (Fab display)) VH: QVQLVQSGAEVKKPGASVKVSCKASGYTFTSYGISWVRQAPGQGLEWMGWISPYTGKTNYAQKLQGRVTMTRDTSTSTAYMELRSLRSDDTAVYYCAREGRWGGSFNIWGQGTMVTVSS VL: DIQMTQSPSSLSASVGDRVTITCRASQGISSYLAWYQQKPGKAPKLLIYDVSILDAGVPSRFSGSGSGTDFTFTISSLQPEDIATYYCQQYDNLPLTFGGGTKVEIK | 0.88 | 6.74
Ab2004.Am33 (Fab displayed on yeast) (Fab, V domains shown, Yeast monoclonal colony of library JYYDL227 (Fab display)) VH: QVQLVQSGAEVKKPGASVKVSCKASGYTFTSYGISWVRQAPGQGLEWMGWISPYSGNTNYAQKLQGRVTMTRDTSTSTAYMELRSLRSDDTAVYYCAREGRWGGSFNIWGQGTMVTVSS VL: DIQMTQSPSSLSASVGDRVTITCRASEGISEYLAWYQQKPGKAPKLLIYDASNLETGVPSRFSGSGSGTDFTFTISSLQPEDIATYYCQQYDNLPLTFGGGTKVEIK | 0.79 | 15
Ab2004.Am36 (Fab displayed on yeast) (Fab, V domains shown, Yeast monoclonal colony of library JYYDL227 (Fab display)) VH: QVQLVQSGAEVKKPGASVKVSCKASGYTFTQYGIAWVRQAPGQGLEWMGWISAYQGNTNYAQKLQGRVTMTRDTSTSTAYMELRSLRSDDTAVYYCAREGRWGGSFNIWGQGTMVTVSS VL: DIQMTQSPSSLSASVGDRVTITCRASQGISSYLAWYQQKPGKAPKLLIYDASNVDTGVPSRFSGSGSGTDFTFTISSLQPEDIATYYCQQYDNLPLTFGGGTKVEIK | 1.73 | 2.67
Ab2004.Am34 (Fab displayed on yeast) (Fab, V domains shown, Yeast monoclonal colony of library JYYDL227 (Fab display)) VH: QVQLVQSGAEVKKPGASVKVSCKASGYTFTHYGIAWVRQAPGQGLEWMGWISAYQGNTNYAQKLQGRVTMTRDTSTSTAYMELRSLRSDDTAVYYCAREGRWGGSFNIWGQGTMVTVSS VL: DIQMTQSPSSLSASVGDRVTITCRASQGISSYLAWYQQKPGKAPKLLIYDVSILDAGVPSRFSGSGSGTDFTFTISSLQPEDIATYYCQQYDNLPLTFGGGTKVEIK | 1.06 | 4.43
Ab2004.Am31 (Fab displayed on yeast) (Fab, V domains shown, Yeast monoclonal colony of library JYYDL227 (Fab display)) VH: QVQLVQSGAEVKKPGASVKVSCKASGYTFTQYGIAWVRQAPGQGLEWMGWISAYQGNTNYAQKLQGRVTMTRDTSTSTAYMELRSLRSDDTAVYYCAREGRWGGSFNIWGQGTMVTVSS VL: DIQMTQSPSSLSASVGDRVTITCRASEGISEYLAWYQQKPGKAPKLLIYDASNLETGVPSRFSGSGSGTDFTFTISSLQPEDIATYYCQQYDNLPLTFGGGTKVEIK | 0.45 | 1.66
